T1: rDorsal-RHD (Litopenaeus vannamei, UniProt D2E9Y3 74-253)
T1 sequence: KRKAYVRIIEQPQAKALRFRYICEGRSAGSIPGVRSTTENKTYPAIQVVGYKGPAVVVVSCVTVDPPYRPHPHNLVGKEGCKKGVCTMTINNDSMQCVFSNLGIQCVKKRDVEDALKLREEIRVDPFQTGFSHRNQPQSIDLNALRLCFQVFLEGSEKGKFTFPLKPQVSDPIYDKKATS

B1: probe 1 (BigPEN kB1) (dsDNA)
DNA 1: TCTGTGTGTGTGTCCTTTAGTGTTTTTCGCCGGAGAAAACATTATCAGAC
DNA 2: GTCTGATAATGTTTTCTCCGGCGAAAAACACTAAAGGACACACACACAGA
B2: unlabeled probe 1 (dsDNA)
DNA 1: B1 DNA 1
DNA 2: B1 DNA 2
B3: Mut-bio-probe 1 (dsDNA)
DNA 1: TCTGTGTGTGTGTCCTTTACGGAGAAAACATTATCAGA
DNA 2: TCTGATAATGTTTTCTCCGTAAAGGACACACACACAGA

Experiments:
[1] = target: T1, rDorsal-RHD; assay: EMSA
[2] = target: rTrx (UniProt P0AA25 1-109); assay: EMSA
[3] = target: T1, rDorsal-RHD; assay: competition

Sequence of rTrx (P0AA25 whole entry): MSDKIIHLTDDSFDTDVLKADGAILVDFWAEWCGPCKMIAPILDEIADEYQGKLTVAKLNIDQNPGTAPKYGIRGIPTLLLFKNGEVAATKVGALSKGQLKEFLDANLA

Row | Binder | binding result [1] | binding result [2] | binding result [3]
1 | B1 | binds | no binding | –
2 | B2 | – | – | binds
3 | B3 | no binding | – | –

Reference: paper doi:10.1101/467571
